Data on 56 molecules can be found in PMC9352680, “A comprehensive thermodynamic model for RNA binding by the Saccharomyces cerevisiae Pumilio protein PUF4”.

First the molecules themselves.
T1: PUF4 RNA-binding domain (Saccharomyces cerevisiae, UniProt P25339 537-888)
T1 sequence: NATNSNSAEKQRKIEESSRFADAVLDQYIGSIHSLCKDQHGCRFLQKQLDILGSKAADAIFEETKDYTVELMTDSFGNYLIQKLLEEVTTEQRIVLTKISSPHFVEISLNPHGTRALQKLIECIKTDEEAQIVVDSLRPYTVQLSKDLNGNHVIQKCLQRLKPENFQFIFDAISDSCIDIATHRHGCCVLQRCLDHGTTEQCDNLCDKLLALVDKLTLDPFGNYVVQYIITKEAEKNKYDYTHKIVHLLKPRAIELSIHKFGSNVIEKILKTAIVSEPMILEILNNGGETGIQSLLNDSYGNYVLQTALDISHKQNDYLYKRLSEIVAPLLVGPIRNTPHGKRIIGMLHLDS

B1: Ic_S2_P3E.1_K3.1_C3.1_H3.1_A3.1_F3.1_[A8T]_T3.1 (ssRNA)
RNA: UUUGAUUAAUAUGAUAUCGUUCUUUCUUGUAUAUUUUCUUUCUCGAUAUCAUAUUAAUCUUU

For this series, the target named is T1, PUF4 RNA-binding domain. Description: Mg; RNA-MaP; 20 mM Na-HEPES pH 7.4, 30 mM KOAc, 0.75 mM MgCl2, 0.1% Tween-20, 5% glycerol, 0.1 mg/mL BSA, 2 mM DTT; 25 C; 0.0125-409.6 nM protein. Particulars: tags: N-His6-TEV cleaved; C-SNAP kept, Cy3B-labelled; label: tethered on chip by stalled RNA polymerase.
UCUCUUCUUGUUUCCAUAUAUAUCUCUU (ssRNA) [Ie_S1_P3E.2_K3.1_C3.2_H3.1_[+3TTCC]_A3.1_F3.1_T3.2] had a dissociation constant (Kd) of 69.3 nM. The same measure for UCUCUUCUUGUCCUCUAUAUAUAUCUCUU (ssRNA) [Ie_S1_P3E.2_K3.1_C3.2_H3.1_[+3CCTCT]_A3.1_F3.1_T3.2]: 139 nM; for UCUCUUCUUGUAUAUACUUAUCUCUU (ssRNA) [Ie_S1_P3E.2_K3.1_C3.2_H3.1_A3.1_F3.1_[+8CT]_T3.2]: 9.04 nM. With UCUCUUCUUGUAUAUACCCUUAUCUCUU (ssRNA) [Ie_S1_P3E.2_K3.1_C3.2_H3.1_A3.1_F3.1_[+8CCCT]_T3.2], the Kd was found to be 12.3 nM.

UCUCUUUGUAUCGUUAUCUCUU (ssRNA) [Ib_S1_P5E.1_K5.1_C5.1_H5.1_A5.1_[T6C]_[A7G]_F5.1_T5.1] displayed a Kd of 14.4 nM. The same measure for UCUCUUCUUGUCCAUAUAUAUCUCUU (ssRNA) [Ie_S1_P3E.2_K3.1_C3.2_H3.1_[+3CC]_A3.1_F3.1_T3.2]: 822 nM; for UCUCUUCUUGUAUCCAUAUAUCUCUU (ssRNA) [Ie_S1_P3E.2_K3.1_C3.2_H3.1_A3.1_[+5CC]_F3.1_T3.2]: 29.9 nM; for UCUCUUCUUGUCCUCAUAUAUAUCUCUU (ssRNA) [Ie_S1_P3E.2_K3.1_C3.2_H3.1_[+3CCTC]_A3.1_F3.1_T3.2]: 798 nM. As for UCUCUUCUUGUAUAUACUCUAUCUCUU (ssRNA) [Ie_S1_P3E.2_K3.1_C3.2_H3.1_A3.1_F3.1_[+8CTC]_T3.2], the Kd came to 11.7 nM. The same measure for UCUCUUCUUGUACUCUCUAUAUAUCUCUU (ssRNA) [Ie_S1_P3E.2_K3.1_C3.2_H3.1_[+4CTCTC]_A3.1_F3.1_T3.2]: 31 nM; for UCUCUUCUUGUAUAUCCCAUAUCUCUU (ssRNA) [Ie_S1_P3E.2_K3.1_C3.2_H3.1_A3.1_F3.1_[+7CCC]_T3.2]: 37.9 nM. UCUCUUUUCGUAUAUUAUCUCUU (ssRNA) [Ie_S1_P4E.1_K4.1_C4.1_H4.1_[+1TC]_A4.1_F4.1_T4.1] showed a Kd of 24.4 nM.

UCUCUUCUUGUAUUAUAUAUCUCUU (ssRNA) [Ie_S1_P3E.2_K3.1_C3.2_H3.1_A3.1_[+5T]_F3.1_T3.2] displayed a Kd of 2.15 nM. The same measure for UCUCUUUUUGUAUAUUAUCUCUU (ssRNA) [Ie_S1_P4E.1_K4.1_C4.1_H4.1_[+1TT]_A4.1_F4.1_T4.1]: 0.914 nM. The same measure for UCUCUUUGUAUAGUUAUCUCUU (ssRNA) [Ib_S1_P5E.1_K5.1_C5.1_H5.1_A5.1_[T6A]_[A7G]_F5.1_T5.1]: 7.36 nM. The same measure for UCUCUUCUUGUAUACUAUAUCUCUU (ssRNA) [Ie_S1_P3E.2_K3.1_C3.2_H3.1_A3.1_[+6C]_F3.1_T3.2]: 0.878 nM; for UCUCUUCUUGUAUAUUCAUAUCUCUU (ssRNA) [Ie_S1_P3E.2_K3.1_C3.2_H3.1_A3.1_F3.1_[+7TC]_T3.2]: 10.3 nM. Molecule UCUCUUCUUGUUUCCUAUAUAUAUCUCUU (ssRNA) [Ie_S1_P3E.2_K3.1_C3.2_H3.1_[+3TTCCT]_A3.1_F3.1_T3.2] showed a dissociation constant (Kd) of 106 nM. The same measure for UCUCUUCUUGUAUAUCUCAUAUCUCUU (ssRNA) [Ie_S1_P3E.2_K3.1_C3.2_H3.1_A3.1_F3.1_[+7CTC]_T3.2]: 24.7 nM. The same measure for UCUCUUCUUGUAUAUUUCAUAUCUCUU (ssRNA) [Ie_S1_P3E.2_K3.1_C3.2_H3.1_A3.1_F3.1_[+7TTC]_T3.2]: 6.46 nM; for UCUCUUCUUGUACCUCUAUAUAUCUCUU (ssRNA) [Ie_S1_P3E.2_K3.1_C3.2_H3.1_[+4CCTC]_A3.1_F3.1_T3.2]: 12.4 nM.

Turning to UCUCUUCUUGUACUAUAUAUCUCUU (ssRNA) [Ie_S1_P3E.2_K3.1_C3.2_H3.1_[+4C]_A3.1_F3.1_T3.2], the affinity, expressed as Kd, was 1.5 nM.

Regarding UCUCUUCUUGUCCCUAUAUAUAUCUCUU (ssRNA) [Ie_S1_P3E.2_K3.1_C3.2_H3.1_[+3CCCT]_A3.1_F3.1_T3.2], binding was put at a Kd of 454 nM. As for UCUCUUCUUGUAUAUACCUUAUCUCUU (ssRNA) [Ie_S1_P3E.2_K3.1_C3.2_H3.1_A3.1_F3.1_[+8CCT]_T3.2], binding was put at a Kd of 8.91 nM. In the case of UCUCUUCUUGUAUAUAUUCCUAUCUCUU (ssRNA) [Ie_S1_P3E.2_K3.1_C3.2_H3.1_A3.1_F3.1_[+8TTCC]_T3.2], binding was characterised by a dissociation constant (Kd) of 6.86 nM. In the case of UCUCUUCUUGUAUAUAUUAUCUCUU (ssRNA) [Ie_S1_P3E.2_K3.1_C3.2_H3.1_A3.1_F3.1_[+8T]_T3.2], the Kd came to 5.64 nM. UCUCUUCUUGUCAUAUAUAUCUCUU (ssRNA) [Ie_S1_P3E.2_K3.1_C3.2_H3.1_[+3C]_A3.1_F3.1_T3.2] displayed a dissociation constant Kd of 67 nM.

Molecule UCUCUUCUUGUAUAUACCCUUUAUCUCUU (ssRNA) [Ie_S1_P3E.2_K3.1_C3.2_H3.1_A3.1_F3.1_[+8CCCTT]_T3.2] had a Kd of 9.52 nM. The same measure for UCUCUUCUUGUUCCAUAUAUAUCUCUU (ssRNA) [Ie_S1_P3E.2_K3.1_C3.2_H3.1_[+3TCC]_A3.1_F3.1_T3.2]: 26.1 nM; for UCUCUUCUUGUAUAUAUCUAUCUCUU (ssRNA) [Ie_S1_P3E.2_K3.1_C3.2_H3.1_A3.1_F3.1_[+8TC]_T3.2]: 9.28 nM; for B1: 1.67 nM. Molecule UCUCUUCUUGUAUAUAUUUUAUCUCUU (ssRNA) [Ie_S1_P3E.2_K3.1_C3.2_H3.1_A3.1_F3.1_[+8TTT]_T3.2] yielded a Kd of 6.71 nM. The same measure for UCUCUUCUUGUACUUAUAUAUCUCUU (ssRNA) [Ie_S1_P3E.2_K3.1_C3.2_H3.1_[+4CT]_A3.1_F3.1_T3.2]: 6.52 nM; for UCUCUUCUUGUACCCUUUAUAUAUCUCUU (ssRNA) [Ie_S1_P3E.2_K3.1_C3.2_H3.1_[+4CCCTT]_A3.1_F3.1_T3.2]: 20.6 nM; for UCUCUUCUUGUAUAUAUCUCUAUCUCUU (ssRNA) [Ie_S1_P3E.2_K3.1_C3.2_H3.1_A3.1_F3.1_[+8TCTC]_T3.2]: 5.63 nM. Take UCUCUUCUUGUUCUCUAUAUAUAUCUCUU (ssRNA) [Ie_S1_P3E.2_K3.1_C3.2_H3.1_[+3TCTCT]_A3.1_F3.1_T3.2]: the Kd was 68.4 nM.

UCUCUUUGUAUCUUUAUCUCUU (ssRNA) [Ib_S1_P5E.1_K5.1_C5.1_H5.1_A5.1_[T6C]_[A7T]_F5.1_T5.1] came in with a dissociation constant (Kd) of 6.01 nM.

The molecule UCUCUUCUUGUAUAUCUCUCAUAUCUCUU (ssRNA) [Ie_S1_P3E.2_K3.1_C3.2_H3.1_A3.1_F3.1_[+7CTCTC]_T3.2] yielded a Kd of 28.5 nM. Compared with the last molecule, the Kd is about 4.7-fold higher. In the case of UCUCUUCUUGUACCCUAUAUAUCUCUU (ssRNA) [Ie_S1_P3E.2_K3.1_C3.2_H3.1_[+4CCC]_A3.1_F3.1_T3.2], the Kd came out at 8.38 nM. Against the preceding molecule, the Kd is about 3.4-fold lower. Molecule UCUCUUCUUGUCCCAUAUAUAUCUCUU (ssRNA) [Ie_S1_P3E.2_K3.1_C3.2_H3.1_[+3CCC]_A3.1_F3.1_T3.2] yielded a Kd of 64.7 nM. The same measure for UCUCUUCUUGUUCAUAUAUAUCUCUU (ssRNA) [Ie_S1_P3E.2_K3.1_C3.2_H3.1_[+3TC]_A3.1_F3.1_T3.2]: 98.7 nM; for UCUCUUCUUGUAUAUACUAUCUCUU (ssRNA) [Ie_S1_P3E.2_K3.1_C3.2_H3.1_A3.1_F3.1_[+8C]_T3.2]: 8.83 nM. For the molecule UCUCUUUCUGUAUAUUAUCUCUU (ssRNA) [Ie_S1_P4E.1_K4.1_C4.1_H4.1_[+1CT]_A4.1_F4.1_T4.1], binding was put at a Kd of 0.72 nM. Turning to UCUCUUCUUGUAUCAUAUAUCUCUU (ssRNA) [Ie_S1_P3E.2_K3.1_C3.2_H3.1_A3.1_[+5C]_F3.1_T3.2], the Kd was 1.6 nM.

Turning to UCUCUUCUUGUACUCUAUAUAUCUCUU (ssRNA) [Ie_S1_P3E.2_K3.1_C3.2_H3.1_[+4CTC]_A3.1_F3.1_T3.2], the dissociation constant Kd was determined as 3.95 nM. For UCUCUUCUUGUAUAUUCCAUAUCUCUU (ssRNA) [Ie_S1_P3E.2_K3.1_C3.2_H3.1_A3.1_F3.1_[+7TCC]_T3.2], the Kd turned out to be 9.71 nM. Compared with the last molecule, the Kd is about 2.5-fold higher.

UCUCUUCUUGUACUCUUAUAUAUCUCUU (ssRNA) [Ie_S1_P3E.2_K3.1_C3.2_H3.1_[+4CTCT]_A3.1_F3.1_T3.2]: the dissociation constant Kd is 9.53 nM. Regarding UCUCUUCUUGUAUAUAUCCUAUCUCUU (ssRNA) [Ie_S1_P3E.2_K3.1_C3.2_H3.1_A3.1_F3.1_[+8TCC]_T3.2], the Kd was found to be 10.2 nM. The same measure for UCUCUUCUUGUAUAUACUCUCUAUCUCUU (ssRNA) [Ie_S1_P3E.2_K3.1_C3.2_H3.1_A3.1_F3.1_[+8CTCTC]_T3.2]: 11.7 nM; for UCUCUUCUUGUAUAUAUUCCUUAUCUCUU (ssRNA) [Ie_S1_P3E.2_K3.1_C3.2_H3.1_A3.1_F3.1_[+8TTCCT]_T3.2]: 6.43 nM.

In turn, UCUCUUCUUGUACCUAUAUAUCUCUU (ssRNA) [Ie_S1_P3E.2_K3.1_C3.2_H3.1_[+4CC]_A3.1_F3.1_T3.2] yielded a Kd of 17.6 nM. This Kd is about 2.7-fold higher than that of the molecule before. The same measure for UCUCUUCUUGUAUAUAUCUCUUAUCUCUU (ssRNA) [Ie_S1_P3E.2_K3.1_C3.2_H3.1_A3.1_F3.1_[+8TCTCT]_T3.2]: 8.49 nM; for UCUCUUCUUGUAUAUAUUCUAUCUCUU (ssRNA) [Ie_S1_P3E.2_K3.1_C3.2_H3.1_A3.1_F3.1_[+8TTC]_T3.2]: 4.4 nM. The same measure for UCUCUUUUGUAUAUUAUCUCUU (ssRNA) [Ie_S1_P4E.1_K4.1_C4.1_H4.1_[+1T]_A4.1_F4.1_T4.1]: 0.567 nM; for UCUCUUUGUAUGCUUAUCUCUU (ssRNA) [Ic_S1_P5E.1_K5.1_C5.1_H5.1_A5.1_[T6G]_[A7C]_F5.1_T5.1]: 32 nM. The same measure for UCUCUUUGUAUCCUUAUCUCUU (ssRNA) [Ib_S1_P5E.1_K5.1_C5.1_H5.1_A5.1_[T6C]_[A7C]_F5.1_T5.1]: 9.16 nM.
